Reference: the supplement of paper PMC9112550, “Optimization of the antimicrobial peptide Bac7 by deep mutational scanning” (BMC Biology, 2022)

These sequences were tested on Escherichia coli TOP10 (assay: shrunken log2 fold change of peptide-encoding DNA abundance (4.5 h post-induction vs induction); higher = less antimicrobial activity (less host growth inhibition)). Conditions: time post-induction: 4.5 h; library: site-saturation at positions 5, 18, 19, 20.
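Also: peptides expressed intracellularly from a pBAD plasmid library in pooled LB shake-flask culture, induced with 0.3% L-arabinose, DNA abundance read by NGS, three biological replicates, DESeq2 with apeglm shrinkage.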

Row | Sequence | shrunken log2 fold change
1 | RRIRMRPPRLPRPRPRPNNMPRP | -0.309
2 | RRIRHRPPRLPRPRPRPSRLPRP | 0.39
3 | RRIRHRPPRLPRPRPRPWVAPRP | -0.0296
4 | RRIRFRPPRLPRPRPRPAAYPRP | -0.341
5 | RRIRDRPPRLPRPRPRPQKAPRP | 0.0864
6 | RRIRSRPPRLPRPRPRPRVAPRP | 0.179
7 | RRIRNRPPRLPRPRPRPHSLPRP | -0.117
8 | RRIRPRPPRLPRPRPRPHVAPRP | 0.218
9 | RRIRFRPPRLPRPRPRPMDMPRP | 0.0169
10 | RRIRIRPPRLPRPRPRPGLWPRP | 0.0804
11 | RRIRERPPRLPRPRPRPWNHPRP | -1.48
12 | RRIRPRPPRLPRPRPRPSGIPRP | -0.126
13 | RRIRERPPRLPRPRPRPIDVPRP | -0.0231
14 | RRIRCRPPRLPRPRPRPIGRPRP | -0.0502
15 | RRIRTRPPRLPRPRPRPAGWPRP | 0.517
16 | RRIRWRPPRLPRPRPRPWGVPRP | 0.132
17 | RRIRFRPPRLPRPRPRPQGVPRP | 0.103
18 | RRIRMRPPRLPRPRPRPECCPRP | 3.54
19 | RRIRCRPPRLPRPRPRPLITPRP | -0.125
20 | RRIRCRPPRLPRPRPRPHHMPRP | -1.36

Row | Sequence | shrunken log2 fold change
21 | RRIRWRPPRLPRPRPRPFYHPRP | -0.0855
22 | RRIRPRPPRLPRPRPRPNQHPRP | -0.43
23 | RRIRHRPPRLPRPRPRPAQHPRP | -0.14
24 | RRIRFRPPRLPRPRPRPCCGPRP | -0.221
25 | RRIRDRPPRLPRPRPRPVMGPRP | 0.0247
26 | RRIRHRPPRLPRPRPRPKCYPRP | -0.0358
27 | RRIRTRPPRLPRPRPRPEKIPRP | 0.0436
28 | RRIRRRPPRLPRPRPRPIVFPRP | 0.00406
29 | RRIRRRPPRLPRPRPRPNNPPRP | 0.0225
30 | RRIRMRPPRLPRPRPRPRLTPRP | 1.13
31 | RRIRMRPPRLPRPRPRPVTEPRP | -0.0547
32 | RRIRIRPPRLPRPRPRPAKQPRP | 0.0314
33 | RRIRDRPPRLPRPRPRPGNAPRP | 0.126
34 | RRIRVRPPRLPRPRPRPIRTPRP | 0.782
35 | RRIRTRPPRLPRPRPRPILNPRP | -0.403
36 | RRIRVRPPRLPRPRPRPFMMPRP | 0.097
37 | RRIRNRPPRLPRPRPRPNCMPRP | -0.0251
38 | RRIRARPPRLPRPRPRPMVAPRP | 0.676
39 | RRIRCRPPRLPRPRPRPWQGPRP | -0.0944
40 | RRIRSRPPRLPRPRPRPWHTPRP | -0.348

Row | Sequence | shrunken log2 fold change
41 | RRIRGRPPRLPRPRPRPVDLPRP | 0.687
42 | RRIRFRPPRLPRPRPRPLAAPRP | 0.315
43 | RRIRPRPPRLPRPRPRPTISPRP | -0.218
44 | RRIRHRPPRLPRPRPRPDKIPRP | -0.042
45 | RRIRDRPPRLPRPRPRPDNWPRP | -0.232
46 | RRIRERPPRLPRPRPRPQKSPRP | -0.202
47 | RRIRLRPPRLPRPRPRPNESPRP | -0.00771
48 | RRIRGRPPRLPRPRPRPAFKPRP | 0.177
49 | RRIRCRPPRLPRPRPRPFCRPRP | -0.0846
50 | RRIRIRPPRLPRPRPRPCKYPRP | -1.03
51 | RRIRFRPPRLPRPRPRPYMMPRP | -0.34
52 | RRIRHRPPRLPRPRPRPDCCPRP | -0.0827
53 | RRIRRRPPRLPRPRPRPMDNPRP | 0.158
54 | RRIRTRPPRLPRPRPRPMWYPRP | -0.602
55 | RRIRSRPPRLPRPRPRPWAPPRP | 0.0324
56 | RRIRERPPRLPRPRPRPYYDPRP | -0.362
57 | RRIRNRPPRLPRPRPRPMWIPRP | -0.148
58 | RRIRFRPPRLPRPRPRPNFIPRP | -0.308
59 | RRIRARPPRLPRPRPRPMREPRP | 0.844
60 | RRIRLRPPRLPRPRPRPMAPPRP | 0.19
